B1: Lysozyme C, P61626 (parent)
chain: MKALIVLGLVLLSVTVQGKVFERCELARTLKRLGMDGYRGISLANWMCLAKWESGYNTRATNYNAGDRSTDYGIFQINSRYWCNDGKTPGAVNACHLSCSALLQDNIADAVACAKRVVRDPQGIRAWVAWRNRCQNRDVRQYVQGCGV

Variants of: B1
Conditions: Homo sapiens, Thermal, DSC, reversible: yes, structure 1LZ1, whole UniProt chain shown; for ddG of mutation (higher = less stable) / unfolding free energy: 65 °C
[1] = pH 2.2, glycine hydrochloride 0.05 M
[2] = pH 2.3, glycine hydrochloride 0.05 M, KCl 0.2 M
[3] = pH 4.5, sodium acetate 0.02 M, KCl 0.2 M

Variant | Tm [1] [°C] | change of melting temperature, mutant - wild type (higher = more stable) [1] [°C] | Tm [2] [°C] | change of melting temperature, mutant - wild type (higher = more stable) [2] [°C] | ddG of mutation (higher = less stable) (pH 4, sodium acetate 0.02 M) [kcal/mol] | unfolding free energy (pH 4, sodium acetate 0.02 M) [kcal/mol] | Tm (pH 4, sodium acetate 0.02 M) [°C] | change of melting temperature, mutant - wild type (higher = more stable) (pH 4, sodium acetate 0.02 M) [°C] | ddG of mutation (higher = less stable) [3] [kcal/mol] | unfolding free energy [3] [kcal/mol] | Tm [3] [°C] | change of melting temperature, mutant - wild type (higher = more stable) [3] [°C]
E25Q | 57.8 | 0.3 | 54.6 | -1.6 | 1.43 | 3.99 | 76.2 | -3.9 | 1.29 | 2.77 | 75.5 | -2.2
D36N | 56 | -1.5 | – | – | – | – | 75.5 | -4.6 | – | – | – | –
D67N | 57.5 | 0 | – | – | 1 | 4.42 | 77.4 | -2.7 | – | – | – | –
D85N | 56.8 | -0.7 | 55.2 | -1 | 2.25 | 3.18 | 74 | -6.1 | 1.7 | 2.37 | 72.5 | -5.2
D120N | 58.1 | 0.6 | 56.7 | 0.5 | 0.67 | 4.76 | – | – | -0.07 | 4.13 | 77.9 | 0.2
D138N | 57.8 | 0.3 | 56.9 | 0.7 | 0.67 | 4.76 | 78.3 | -1.8 | -0.05 | 4.13 | 77.8 | 0.1

— FireProtDB (doi:10.1021/bi000849s)
